According to patent US20250270296A1:
Substitutions are numbered along the chain they refer to.

Legend:
Experiment in all cases: cell-based or functional assay
[1] = substrate: S protein of SARS-CoV-2 variant B.1.351 (SA, Beta), full length, on pseudovirus (SARS-CoV-2), P0DTC2
[2] = substrate: S protein of SARS-CoV-2 variant P1 (Brazil, Gamma), full length, on pseudovirus or authentic virus (SARS-CoV-2), P0DTC2
[3] = substrate: S protein of SARS-CoV-2 variant B.1.1.7 (UK, Alpha), full length, on pseudovirus or authentic virus (SARS-CoV-2), P0DTC2

B1: RBD-chAb-28 (antibody, V domains shown)
VH: QVQLQQPGTELVMPGASVKMSCKASGYTFTDYYLHWMKQRPGQGLEWIGAIDSSDSYTDYNQNFKGKATLTVDESSSTAYMHLSSLTSEDSAVYYCARGKDAYDRRPWFAYWGQGTLVTVSA
VL: DIQMTQTTSSLSASLGDRVTISCSASQGIRYYLNWYQQKPDGTVKLLIYYTSNLHSGVPSRFSGSGSGTDYSLTISNLEPEDIATYYCQQYNKLPYTFGGGTKLDIK
SARS-CoV2 pseudovirus IC50 [1]: 16.5 ng/mL
PRNT50 [2]: 58.3 ng/mL
SARS-CoV2 pseudovirus IC50 [2]: 4.18 ng/mL
PRNT50 [3]: 58.5 ng/mL
SARS-CoV2 pseudovirus IC50 [3]: 11.3 ng/mL

B2: RBD-chAb-15 (antibody, V domains shown)
VH: EVQLEESGPGLVQPSQSLSITCTVSDFSLTTYGVHWVRQSPGKGLEWLGVIWSGGSTDYNAAFISRLSISKDNSKSQVFFKMNSLQTNDTAIYYCARMGDGYYVGAMDYWGQGTSVTVSS
VL: DIQLTQSPAILSVSPGERVSFSCRASQSIGTSIHWYQQRTNGSPRHLIKYASESISGIPSRFSGSGSGTDFTLTINGVESEDIADYYCQQGHNWPLTFGAGTKLDIK
SARS-CoV2 pseudovirus IC50 [1]: 30.1 ng/mL
PRNT50 [2]: 50.9 ng/mL
SARS-CoV2 pseudovirus IC50 [2]: 7.18 ng/mL
PRNT50 [3]: 58.1 ng/mL
SARS-CoV2 pseudovirus IC50 [3]: 39.7 ng/mL

B3: RBD-chAb-1 (antibody, V domains shown)
VH: EVQLQQSGPQLVRPGASMKISCKASGYSFTTYWMHWVKQRPGQGLQWIGMIDPSDSETRLNQKFKDKATLTVDKSSSTAYMQLSSPTSEDSAVYYCARDFDYDRTMDYWGQGTSVTVSS
VL: DIVMSQSPSSLAVSVGEKVTMSCKSSQSLLFSSSQKNYLAWYQQKAGQSPKLLIFWASTRESGVPDRFTGSGSGTDFTLTISSVKAEDLAIYYCKQYYKYPLTFGAGTKLDIK
SARS-CoV2 pseudovirus IC50 [1]: 46.7 ng/mL
SARS-CoV2 pseudovirus IC50 [2]: 17.1 ng/mL
SARS-CoV2 pseudovirus IC50 [3]: 33.5 ng/mL

B4: RBD-chAb-45 (antibody, V domains shown)
VH: EVQLQQSGPELVKPGASVKISCKTSGYTFTEYTIYWVKQSLGKSLEWIGGNNPNNDDTTYKQFFKGKATLTVDKSSSTAYMELRSLTSEDSAVYYCARDGYPYYYALDFWGQGTSVTVSS
VL: DILMTQSQKFMSTSVGDRVSVTCKSSQNVGTNVAWYQQKPGQSPKALIYSASYRYSGVPDHFTGSGSGTDFTLTISNVQSADLAEYFCQQYNNYPWTFGGGTKLDIK
SARS-CoV2 pseudovirus IC50 [1]: 2.68 ng/mL
PRNT50 [2]: 3.26 ng/mL
SARS-CoV2 pseudovirus IC50 [2]: 0.76 ng/mL
PRNT50 [3]: 5.29 ng/mL
SARS-CoV2 pseudovirus IC50 [3]: 2.06 ng/mL

B5: RBD-chAb-51 (antibody, V domains shown)
VH: B4 VH with V18A, I34M, L41H, N51I, D56G, K61N, F63T, Y103F, F109Y, T114I
VL: DIVMTQSQKFMSTSVGDRVSVTCKARQIVGTNVAWYQQKPGQSPKALIYSASYRYSGVPDRFTGSGSGTDFTLTITNVHSEDLAEFFCHQYNSYPWTFGGGTKLDIK
SARS-CoV2 pseudovirus IC50 [1]: 1.26 ng/mL
PRNT50 [2]: 2.92 ng/mL
SARS-CoV2 pseudovirus IC50 [2]: 0.7 ng/mL
PRNT50 [3]: 6.39 ng/mL
SARS-CoV2 pseudovirus IC50 [3]: 3.07 ng/mL
